In the supplement of paper PMC9233669:
This sample holds only a part of the variants without activity.

Columns and labels:
[1] = tested on: biotinyl-Phe-oxazolone; assay: self-aminoacylation, catalytic enhancement (BFO) (fold over background); higher = more active; k-Seq, kA / k0A0; sequences stand for … in GGGAAUGGAUCCACAUCUACGAAUUC…UUCACUGCAGACUUGACGAAGCUG
In short: (§1)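 Mutagenized RNA pools (0.43 μM; 21-nt variable region) were treated with 2–1250 μM of each biotinyl-aminoacyl-oxazolone. Conditions were 50 μL HEPES/NaCl/KCl/MgCl2/CaCl2 buffer, 5% acetonitrile, pH 6.9–7.0, room temperature, 90 minutes. Catalytic enhancement, the median kA relative to the uncatalyzed rate, was derived from streptavidin capture, qPCR and Illumina sequencing.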

[2] = tested on: biotinyl-Leu-oxazolone; assay: self-aminoacylation, catalytic enhancement (BLO) (fold over background); higher = more active; k-Seq, kA / k0A0; sequences stand for … in GGGAAUGGAUCCACAUCUACGAAUUC…UUCACUGCAGACUUGACGAAGCUG
In short: as §1

[3] = tested on: biotinyl-Trp-oxazolone; assay: self-aminoacylation, catalytic enhancement (BWO) (fold over background); higher = more active; k-Seq, kA / k0A0; sequences stand for … in GGGAAUGGAUCCACAUCUACGAAUUC…UUCACUGCAGACUUGACGAAGCUG
In short: as §1

[4] = tested on: biotinyl-Met-oxazolone; assay: self-aminoacylation, catalytic enhancement (BMO) (fold over background); higher = more active; k-Seq, kA / k0A0; sequences stand for … in GGGAAUGGAUCCACAUCUACGAAUUC…UUCACUGCAGACUUGACGAAGCUG
In short: as §1

[5] = tested on: biotinyl-Val-oxazolone; assay: self-aminoacylation, catalytic enhancement (BVO) (fold over background); higher = more active; k-Seq, kA / k0A0; sequences stand for … in GGGAAUGGAUCCACAUCUACGAAUUC…UUCACUGCAGACUUGACGAAGCUG
In short: as §1

[6] = tested on: biotinyl-Ile-oxazolone; assay: self-aminoacylation, catalytic enhancement (BIO) (fold over background); higher = more active; k-Seq, kA / k0A0; sequences stand for … in GGGAAUGGAUCCACAUCUACGAAUUC…UUCACUGCAGACUUGACGAAGCUG
In short: as §1

Sequence | self-aminoacylation [1] | self-aminoacylation [2] | self-aminoacylation [3] | self-aminoacylation [4] | self-aminoacylation [5] | self-aminoacylation [6]
AAGUUUGCAAAUAGUCGCUAG [Fam3.1 aminoacylation ribozyme variant] | 0.824 | 1 | 1.84 | 0.905 | 0.856 | 1.15
AAGUUUGCAAUUAGUCGCAAG [Fam3.1 aminoacylation ribozyme variant] | 0.786 | 0.909 | 0.6 | 0.922 | 0.898 | 1.08
AAGUUUGCCAAAAGUCGCAAG [Fam3.1 aminoacylation ribozyme variant] | 1.01 | 1.57 | 1.54 | 1.39 | 1.36 | 1.41
AAGUUUGCCAAUAGUCGCCAG [Fam3.1 aminoacylation ribozyme variant] | 12.8 | 2.4 | 2.22 | 2.27 | 1.54 | 1.52
AAGUUUGCCAAUAGUCGCUAG [Fam3.1 aminoacylation ribozyme variant] | 0.897 | 0.951 | 2.08 | 0.716 | 0.926 | 1.15
AAGUUUGCGAAUACUCGCAAG [Fam3.1 aminoacylation ribozyme variant] | 3.35 | 1.4 | 2.24 | 1.13 | 0.993 | 1.36
AAGUUUGCGAAUAGUCGCCAG [Fam3.1 aminoacylation ribozyme variant] | 9.03 | 1.29 | 1.62 | 1.8 | 1.78 | 1.74
AAGUUUGCGAAUAGUCGCUAG [Fam3.1 aminoacylation ribozyme variant] | 3.9 | 0.918 | 1.4 | 1.45 | 1 | 1.38
AAGUUUGCGAAUAGUCGGAAG [Fam3.1 aminoacylation ribozyme variant] | 0.764 | 1.1 | 2.32 | 1.38 | 0.964 | 0.977
AAGUUUGCGAAUUGUCGCAAG [Fam3.1 aminoacylation ribozyme variant] | 6.83 | 1.94 | 2.19 | 2.15 | 2.23 | 1.77
AAGUUUGCGAGUAGUCGCAAG [Fam3.1 aminoacylation ribozyme variant] | 1.71 | 1.22 | 1.32 | 0.918 | 0.882 | 1.12
AAGUUUGCUAAAACUCGCAAG [Fam3.1 aminoacylation ribozyme variant] | 0.521 | 0.998 | 0.796 | 0.668 | 0.821 | 0.916
AAGUUUGCUAAAAGUAGCAAG [Fam3.1 aminoacylation ribozyme variant] | 1.04 | 0.818 | 1.03 | 1.16 | 0.783 | 1.02
AAGUUUGCUAAAAGUCGCAAG [Fam3.1 aminoacylation ribozyme variant] | 17.1 | 1.01 | 4.97 | 1.33 | 1.08 | 1.24
AAGUUUGCUAACAGACGCAAG [Fam3.1 aminoacylation ribozyme variant] | 1.06 | 0.38 | 0.444 | 0.478 | 0.733 | 0.512
AAGUUUGCUAACAGUCGCAUG [Fam3.1 aminoacylation ribozyme variant] | 0.642 | 0.89 | 1.11 | 0.804 | 0.899 | 0.963
AAGUUUGCUAACAGUCGCUAG [Fam3.1 aminoacylation ribozyme variant] | 1.36 | 0.823 | 0.96 | 0.738 | 0.899 | 0.756
AAGUUUGCUAAGAGGCGCAAG [Fam3.1 aminoacylation ribozyme variant] | 1.21 | 0.547 | 0.895 | 0.759 | 0.656 | 0.727
AAGUUUGCUAAGAGUCCCAAG [Fam3.1 aminoacylation ribozyme variant] | 1.48 | 0.765 | 1 | 0.787 | 0.672 | 0.788
AAGUUUGCUAAGAGUCGCAAC [Fam3.1 aminoacylation ribozyme variant] | 0.845 | 1.27 | 1.28 | 1.07 | 1.19 | 1.21
AAGUUUGCUAAGAGUCGCACG [Fam3.1 aminoacylation ribozyme variant] | 5.94 | 0.977 | 2.06 | 0.636 | 1.12 | 1.17
AAGUUUGCUAAGAGUCUCAAG [Fam3.1 aminoacylation ribozyme variant] | 1.02 | 0.775 | 1.01 | 0.651 | 0.823 | 0.81

Sequence | self-aminoacylation [1] | self-aminoacylation [2] | self-aminoacylation [3] | self-aminoacylation [4] | self-aminoacylation [5] | self-aminoacylation [6]
AAGUUUGCUAAUAAUCCCAAG [Fam3.1 aminoacylation ribozyme variant] | 1.03 | 0.736 | 1.38 | 0.949 | 0.961 | 0.76
AAGUUUGCUAAUACUAGCAAG [Fam3.1 aminoacylation ribozyme variant] | 0.734 | 0.722 | 0.476 | 0.798 | 0.567 | 0.59
AAGUUUGCUAAUACUCGCAAG [Fam3.1 aminoacylation ribozyme variant] | 0.812 | 0.553 | 0.607 | 0.569 | 0.652 | 0.659
AAGUUUGCUAAUACUCGUAAG [Fam3.1 aminoacylation ribozyme variant] | 0.706 | 0.559 | 0.557 | 0.547 | 0.636 | 0.57
AAGUUUGCUAAUAGACUCAAG [Fam3.1 aminoacylation ribozyme variant] | 0.758 | 0.313 | 0.449 | 0.332 | 0.427 | 0.416
AAGUUUGCUAAUAGAUGCAAG [Fam3.1 aminoacylation ribozyme variant] | 0.814 | 0.82 | 0.784 | 0.789 | 0.911 | 0.954
AAGUUUGCUAAUAGCCGAAAG [Fam3.1 aminoacylation ribozyme variant] | 1.6 | 1.03 | 1.28 | 0.766 | 0.677 | 1.09
AAGUUUGCUAAUAGCCGCAGG [Fam3.1 aminoacylation ribozyme variant] | 0.671 | 0.765 | 0.916 | 0.745 | 0.853 | 0.792
AAGUUUGCUAAUAGCCGGAAG [Fam3.1 aminoacylation ribozyme variant] | 3.2 | 1.4 | 2.38 | 1.14 | 1.25 | 1.25
AAGUUUGCUAAUAGGCGCAAA [Fam3.1 aminoacylation ribozyme variant] | 1.74 | 1.74 | 1.48 | 1.63 | 1.1 | 1.46
AAGUUUGCUAAUAGUAGCAGG [Fam3.1 aminoacylation ribozyme variant] | 1.71 | 1.08 | 0.837 | 1.16 | 0.985 | 1.08
AAGUUUGCUAAUAGUAGCAUG [Fam3.1 aminoacylation ribozyme variant] | 1.67 | 0.991 | 1.03 | 0.815 | 0.851 | 1.04
AAGUUUGCUAAUAGUCACCAG [Fam3.1 aminoacylation ribozyme variant] | 2.77 | 0.762 | 1.21 | 0.962 | 0.997 | 0.949
AAGUUUGCUAAUAGUCCUAAG [Fam3.1 aminoacylation ribozyme variant] | 14.5 | 1.05 | 4.71 | 1.31 | 1.13 | 1.21
AAGUUUGCUAAUAGUCGAAAU [Fam3.1 aminoacylation ribozyme variant] | 1.52 | 1.01 | 2 | 1.39 | 1.37 | 1.31
AAGUUUGCUAAUAGUCGCAGA [Fam3.1 aminoacylation ribozyme variant] | 1.77 | 1.12 | 0.729 | 1.03 | 0.914 | 1.54
AAGUUUGCUAAUAGUCGCAGG [Fam3.1 aminoacylation ribozyme variant] | 2.2 | 1.38 | 1.45 | 1.31 | 1.31 | 1.29
AAGUUUGCUAAUAGUCGCCAU [Fam3.1 aminoacylation ribozyme variant] | 0.768 | 1.24 | 1.08 | 1.44 | 1.2 | 1.27
AAGUUUGCUAAUAGUCGCGAU [Fam3.1 aminoacylation ribozyme variant] | 1.53 | 1.47 | 1.86 | 1.33 | 1.37 | 1.46
AAGUUUGCUAAUAGUCGCUGG [Fam3.1 aminoacylation ribozyme variant] | 1.72 | 0.78 | 1.18 | 1.67 | 1.25 | 1.21
AAGUUUGCUAAUAGUCGGAAC [Fam3.1 aminoacylation ribozyme variant] | 0.662 | 0.951 | 1.05 | 1.01 | 0.851 | 1.05
